PMC5555194

Molecular target: C3d (human), P01024
Assay: SPR; C3d amine-coupled to a different flow cell of the same C1 chip; CFH (from 2.5 to 0.019 uM), or 0.6 uM CFH premixed with 1.2 uM PspCN, flowed over; equilibrium plots
Settings: remark: other sources report otherwise

C3d (human), P01024, sequence (P01024 1002-1303): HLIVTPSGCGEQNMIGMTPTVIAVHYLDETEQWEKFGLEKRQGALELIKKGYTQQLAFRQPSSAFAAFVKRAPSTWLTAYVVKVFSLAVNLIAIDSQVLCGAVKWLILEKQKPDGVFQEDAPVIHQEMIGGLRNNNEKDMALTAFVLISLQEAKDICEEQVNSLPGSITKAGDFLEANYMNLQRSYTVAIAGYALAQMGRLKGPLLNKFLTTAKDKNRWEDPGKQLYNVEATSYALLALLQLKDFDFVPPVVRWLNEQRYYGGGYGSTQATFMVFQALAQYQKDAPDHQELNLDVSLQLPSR

B1: V62-CFH (recombinant human complement factor H, variant Val-62, Tyr-402, Glu-936), P08603 19-1231 (natural protein)
chain: EDCNELPPRRNTEILTGSWSDQTYPEGTQAIYKCRPGYRSLGNVIMVCRKGEWVALNPLRKCQKRPCGHPGDTPFGTFTLTGGNVFEYGVKAVYTCNEGYQLLGEINYRECDTDGWTNDIPICEVVKCLPVTAPENGKIVSSAMEPDREYHFGQAVRFVCNSGYKIEGDEEMHCSDDGFWSKEKPKCVEISCKSPDVINGSPISQKIIYKENERFQYKCNMGYEYSERGDAVCTESGWRPLPSCEEKSCDNPYIPNGDYSPLRIKHRTGDEITYQCRNGFYPATRGNTAKCTSTGWIPAPRCTLKPCDYPDIKHGGLYHENMRRPYFPVAVGKYYSYYCDEHFETPSGSYWDHIHCTQDGWSPAVPCLRKCYFPYLENGYNQNYGRKFVQGKSIDVACHPGYALPKAQTTVTCMENGWSPTPRCIRVKTCSKSSIDIENGFISESQYTYALKEKAKYQCKLGYVTADGETSGSITCGKDGWSAQPTCIKSCDIPVFMNARTKNDFTWFKLNDTLDYECHDGYESNTGSTTGSIVCGYNGWSDLPICYERECELPKIDVHLVPDRKKDQYKVGEVLKFSCKPGFTIVGPNSVQCYHFGLSPDLPICKEQVQSCGPPPELLNGNVKEKTKEEYGHSEVVEYYCNPRFLMKGPNKIQCVDGEWTTLPVCIVEESTCGDIPELEHGWAQLSSPPYYYGDSVEFNCSESFTMIGHRSITCIHGVWTQLPQCVAIDKLKKCKSSNLIILEEHLKNKKEFDHNSNIRYRCRGKEGWIHTVCINGRWDPEVNCSMAQIQLCPPPPQIPNSHNMTTTLNYRDGEKVSVLCQENYLIQEGEEITCKDGRWQSIPLCVEKIPCSQPPQIEHGTINSSRSSQESYAHGTKLSYTCEGGFRISEENETTCYMGKWSSPPQCEGLPCKSPPEISHGVVAHMSDSYQYGEEVTYKCFEGFGIDGPAIAKCLGEKWSHPPSCIKTDCLSLPSFENAIPMGEKKDVYKAGEQVTYTCATYYKMDGASNVTCINSRWTGRPTCRDTSCVNPPTVQNAYIVSRQMSKYPSGERVRYQCRSPYEMFGDEEVMCLNGNWTEPPQCKDSTGKCGPPPPIDNGDITSFPLSVYAPASSVEYQCQNLYQLEGNKRITCRNGQWSEPPKCLHPCVISREIMENYNIALRWTAKQKLYSRTGESVEFVCKRGYRLSSRSHTLRTTCWDGKLEYPTCAKR
modifications: here or on the partner: N-glycans trimmed to the first GlcNAc residues (EndoHf)
With B1 the Kd was 2100 nM.
